Results published in the nanobody polyreactivity screen of Harvey et al. (2022).

Assay: yeast display, Sf9 membrane polyspecificity reagent, FACS + sequencing; frameworks hold sequencing errors
Method in brief: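 After 36–48 hours of galactose induction, yeast (Saccharomyces cerevisiae BJ5465) displaying a synthetic nanobody library were stained at 4 °C for 1 hour with 10% biotinylated, detergent-solubilized Sf9 membrane reagent. Streptavidin microbeads enriched the stained cells before FACS sorting into low and high (top ~1%) gates on anti-HA and streptavidin fluorescence. Each clone's polyreactivity label reflects its gate of origin.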

| Sequence | polyreactivity (PSR sort gate) |
| --- | --- |
| QVQLVESVGGLVQAGGSLRLSCAASGSIFITYAMGWYRQAPGKVRELVAAIRDSGDRTYYADSVKGRFTISRDNAKNTVYLQMNSLKPEDTAVYYCNARWQEPLKYDYWGQGTQVTVSS | low polyreactivity |
| QVQLVESVGGLVQAGGSLRLSCAASGSIFTHNTMGWYRQAPGKERELVASIDSGASTNYADSVKGRFTISRDNAKNTVYLQMNSLKPEDTAVYYCAARDYDWGYPYYYWGQGTQVTVSS | low polyreactivity |
| QVQLVESVGGLVQAGGSLRLSCAASGSIFVNNAMGWYRQAPGKERELVAAISRSGGSTYYADSVKGRFTISRDNAKNTVYLQMNSLKPEDTAVYYCATVHRSSTPPEFNYWGQGTQVTVSS | high polyreactivity |
| QVQLVESVGGLVQAGGSLRLSCAASGSIFVTNALGWYRQAPGKERELVAAISSGGNTNYADSVKGRFTISRDNAKNTVYLQMNSLKPEDTAVYDCAKDPDKVDYVDMDYWGQGTQVTVSS | low polyreactivity |
| QVQLVESVGGLVQAGGSLRLSCAASGSIFYDNGMGWYRQAPGNERELVAAISRGGTTNYADSVKGRFTISRDKAKNTVYLQMNSLKPEDTAVYYCNAETRFTYWGSWYDYWGQGTQVTVSS | low polyreactivity |
| QVQLVESVGGLVQAGGSLRLSCAASGSIFYPYAMGWYRQAPGKERELVAAIRNGRSTYYADSVKGRFTISRDNAKNTVYLKMNSLKPEDTAVYYCAASVRRRHPFEYWGQGTQVTVSS | high polyreactivity |
| QVQLVESVGGLVQAGGSLRLSCAASGSILAVNAMGWYRQAPGKERELVAAISSRGGSTSYADSVKGRYTISRDNAKNTVYLQMNSLKPEDTAVYYCAVRAVRRLRTSVPVRFYYWGQGTQVTVSS | high polyreactivity |
| QVQLVESVGGLVQAGGSLRLSCAASGSILVSYAMGWSRQAPGKERELGPAITQGGGSTYYADCVKGRFTFSRDNAKNTVYLQMNSLKPEDTAVYYCSVDGLSDDRYSAGGDYWGQGTQVTVSS | low polyreactivity |
| QVQLVESVGGLVQAGGSLRLSCAASGSNFPPYAMGWYRQAPGKERELVAAITSTDSTDYADSVKGRFTISRDNAKNTVYLQMNSLKPEDTAVYYCAAATGTYGRGGYYWGQGTQVTVSS | high polyreactivity |
| QVQLVESVGGLVQAGGSLRLSCAASGSTFDKYAMGWYRQAPGKERELVATISQSGASTYYADSVKGRFTISRDNAKNTVYLQMNSLKPEDTAVYYCAARSSTRVWYWGRYYYWGQGTQVTVSS | high polyreactivity |
| QVQLVESVGGLVQAGGSLRLSCAASGSTFGRNAMGWYRQAPGKERELVAAISSRGGGTYYADSVKGRFTISRDNAKNTVYLQMNSLKPEDTAVYYCAATYGYRRRNHYNYWGQGTQVTVSS | high polyreactivity |
| QVQLVESVGGLVQAGGSLRLSCAASGSTFQSNGMGWYRQAPGKERELVAAITSTDASTSYADSVKGRFTISRDNAKITVYLQMNSLKPEDTAVYYCAADFPVASGAELDYWGQGTQVTVSS | low polyreactivity |
| QVQLVESVGGLVQAGGSLRLSCAASGSTFYANAMGWYRQAPGKERELVAAITWGDASTYYADSVKGRFTISRDNAKNTVYLQMNSLKPEDTAVYYCAVDESYGSSSDMDYWGQGTQVTVSS | low polyreactivity |
| QVQLVESVGGLVQAGGSLRLSCAASGSTSRIYAIGRYRKAPGKEREWVAAISRSGGSTYYADSVKGRFTISRDNAKNTVYLQMNSLKPEDTAVYYCAKDASKETSGGDYWGQGTQVTVSS | high polyreactivity |
| QVQLVESVGGLVQAGGSLRLSCAASGYIFYGYAMGWYRQAPGKEREFVAAITVRGGSTYYADSVKGRFTISRDNAKNTVYLQMNSEKPEDTAVYYCAAAPQFTFGVGYWGQGTQVTVSS | low polyreactivity |
| QVQLVESVGGLVQAGGSLRLSCAASVFNLKSNAMGWYRQATGKERELVAAISSSGGSTYYADSVKGRFTISRDNAKNTVYLQMNSLKPEDTAVYYCNVAQYLRARRPVDYWGHGTQVTVSS | high polyreactivity |

| Sequence | polyreactivity (PSR sort gate) |
| --- | --- |
| QVQLVESVGGLVQAGGSLRLSCAATGSTFGVNDMGWYRQSPGKERQFVADITTSGGSTYYADSVKWRFTISRDIAKNTVYLQMNSLKPEDTAVYYCAADLWPFEHDDYWGQGTQVTVSS | low polyreactivity |
| QVQLVESVGGLVQAGGSLRLSCAGSGFTFLYYAMGWYRQAPGKERELVDTISKSGGSTYYADSVKGRFTISRDNAKNTDYLQMNSLKPEDTAVDYFAAVGPYRWYDYWGQGTQVTVSS | high polyreactivity |
| QVQLVESVGGLVQAGGSLRLSCPTSGRIFTYYAMGWYRQAPGKERELVAAINSRGGSTYYADSVKGRFTISRDNAKNTVYLQMNSLKPEDSAVYYCAAVGLYSRYAYWGQGTQVSVSS | high polyreactivity |
| QVQLVESVGGLVQAGGSLRLSSAASGFTFTHYAMGWYRQAPGKERELVAAISTSGGSTYYADSVKGRFTISRDNAKNTVYLQMNSLKPEDTAVYYCAARRDGWVQWGYYYWGQGTQVTVSS | low polyreactivity |
| QVQLVESVGGLVQAGGSLRLSSAASGYIFFGNAMGWYRQAPGKERELVAAIRWRGTSTYYADSVKGRFTISRDNAKNTVYLQMNSLKPEDTAVYYCAKDGRVHSPYDYWGQGTQVTVSS | low polyreactivity |
| QVQLVESVGGLVQAGGSLRLTCAASGRIFEINTMGWYRQAPGKERELVAAISRGGGSTYYADSVKGRFTISRDNAKNTVYLQMNSLKPEDTAVYYCAAASYYVEGDYWGQGTQVTVSS | low polyreactivity |
| QVQLVESVGGLVQAGGTRRLSCDASGRTFGLNVMGWYRHAPGKERELVASIRNIGGSTYYADSVKWRFTISCDNAKNTVYLQMNSLKPEDTAVYYCAADYNLVVQGYDYWGQGTQVTVSS | high polyreactivity |
| QVQLVESVGGLVQAGRILRISCAASGFTLYYYDKGWYRQAPGKQRELVAGISSGDSTYYADSLKGRFTISRDNAKNTVYLHMNSLKPEDTAVYYCATGDSLYYRYWSNNYWGQGTQVTVSS | high polyreactivity |
| QVQLVESVGGLVQAGRSLRLSCAASGSIFLRNAMGWYRQPPGKERELVASITWNGASTSYADSVKGRFTISRDNAKNTVYLQMNSLKPEDTAVYYCAAVTVQDSNLKYGYWGQGTQVTVSS | low polyreactivity |
| QVQLVESVGGLVQAGVSLRLSSAASGSTLKQYAMGWFRQSPGKERELVGAITRSGSSTYYADSVKGRFTISRDNAKNTVYLPMNRLKREDTAVYYCDVGCWKGDYYWGLGTQVTVSS | high polyreactivity |
| QVQLVESVGGLVQEGGTLRLSCAASGSTFEVYTMGWYRQAPGKERELVAAITKNGGTTYYADSVKGRFTISRDNAKNTVYLQMNSLKPEDTAVYYCAVYYYSGYYYWDYYWGQGTQVTVSS | low polyreactivity |
| QVQLVESVGVLVQEGGSLRLSSAASGGSLPRYAMGWYRQAPGKEMELVAVITRGGSTYYADSVKGRFTISRDNAKNTVYLQMIRLIPEDTAVYYFAKYRYQTGIFYYWGQGTQVTVSS | high polyreactivity |
| QVQLVESVLGLVQAGGSLRFSCAASGSTIVRYAMVWYRPAPGKERELVAAISSSGATTYYADSVKGRFTISRDNAKNTVYLQMNSLKPEYTAVYYCDKYCRATRGLDNYWGQGTQVTVSS | high polyreactivity |
| QVQLVESVRGLVQAGGSLPLSCAASGIIISSYAIGWYRQAPGKESEMVADIRSGGSTNYADSVKGRFTISRDNAKNNVYLQMNSLKPEDTAVYYCIADTFQWWDIADVYVIVKYGYWGQGTQVTVSS | low polyreactivity |
| QVQLVESVRGLVQAGGSLRLSCDASAFIFRSYAMGWNRQAPGKERELVAVISRRGVNTHYADSVKGRFSISRDNAKNTVYLQINSLKPEDTAVYYCAAELSYRGYPYDYWGQGTQVTVSS | high polyreactivity |
| QVQLVESVVGLVQEGGSLRFSCAASASTLDSNPIGWYRQAPGKEREVVAAITSGGSTYYADSVKGRFTISRDNAKNTVYLQMNSLKPEDSAVYYCATAWYLGRYRSLGYWGQGTQVTVSS | high polyreactivity |
